The target in the assay is T1, PD-1 on SEB-stimulated human T cells (human, UniProt Q15116 25-288).
T1 construct: whole, on cells; also called SEB-stimulated T cells
The assay can be described thus: flow cytometry on SEB-stimulated human PBMCs, APC anti-human kappa MFI on CD3-FITC+ cells. On the procedure:
Binding of anti-PD-1 clone 1C11 to T cells was measured in an SEB-stimulated PBMC assay. Staphylococcal Enterotoxin B (SEB) is a superantigen that causes T cell activation and proliferation in a manner similar to that achieved by activation via the T cell receptor (TCR), including expression of checkpoint receptors such as PD-1. Human PBMCs were stimulated with […] for 3 days. Following stimulation, PBMCs were incubated with the indicated test articles at indicated concentrations at 4° C. for 30 min. PBMCs were stained with anti-CD3-FITC (UCHT1) and APC labeled antibody for human immunoglobulin κ light chain. The binding of the test articles to T cells as indicated by APC MFI on FITC+ cells is depicted in FIG. 17.

T1 sequence (Q15116 25-288): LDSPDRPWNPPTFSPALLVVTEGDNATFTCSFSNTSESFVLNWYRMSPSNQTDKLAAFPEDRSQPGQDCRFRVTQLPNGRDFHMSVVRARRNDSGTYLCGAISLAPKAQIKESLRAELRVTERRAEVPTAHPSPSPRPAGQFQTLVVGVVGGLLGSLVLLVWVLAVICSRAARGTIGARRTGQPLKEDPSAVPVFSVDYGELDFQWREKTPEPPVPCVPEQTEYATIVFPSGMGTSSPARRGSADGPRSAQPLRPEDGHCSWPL

B1: XENP21575, chimeric anti-PD-1 antibody based on the variable regions of hybridoma clone 1C11 and human IgG1 with E233P/L234V/L235A/G236del/S267K substitutions … (antibody, V domains shown)
VH: QIQLVQSGPELKKPGETVKISCRASGYTFTHYGMNWVKQAPGKGLKWMGWINTYTGEPTYADDFKGRFAFSLETSASTAYLQINNLKNEDTATYFCARDYYGSSPYWGQGTTLTVSS
VL: DVLMTQTPLSLPVSLGDQASISCRSSQSIVHSNGNTYLEWYLQKPGQSPKLLIYKVSNRFSGVPDRFSGSGSGTDFTLKISRVEAEDLGVYYCFQGSHVPNTFGGGTKLEIKR
notes: Mouse hybridoma variable regions on human IgG1 with FcγR ablation substitutions (EU numbering); also called anti-PD-1 clone 1C11
Consider B1, for which the binding result was “binds”.

Source of the values: US20230220081A1 (Xencor, published 2023).
